Results: IntAct's records for PubMed 15165234

B1: Nitrogen regulatory protein P-II (Synechococcus elongatus (strain PCC 7942)), P0A3F4 (parent)
chain: MKKIEAIIRPFKLDEVKIALVNAGIVGMTVSEVRGFGRQKGQTERYRGSEYTVEFLQKLKLEIVVEDAQVDTVIDKIVAAARTGEIGDGKIFVSPVDQTIRIRTGEKNADAI
partner: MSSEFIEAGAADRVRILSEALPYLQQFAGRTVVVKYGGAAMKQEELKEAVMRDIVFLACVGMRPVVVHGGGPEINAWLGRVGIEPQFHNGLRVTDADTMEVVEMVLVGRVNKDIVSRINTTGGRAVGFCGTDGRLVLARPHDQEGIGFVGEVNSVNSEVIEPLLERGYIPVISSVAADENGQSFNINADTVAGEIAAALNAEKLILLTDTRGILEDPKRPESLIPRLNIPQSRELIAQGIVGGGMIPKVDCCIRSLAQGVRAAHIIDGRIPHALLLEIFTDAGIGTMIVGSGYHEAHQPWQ

Variants of: B1
Settings: with argb_syne7 argB

Question: For S49A, which “effect of a mutation on the interaction” value is on record?
Answer: decreasing interaction

Question: S49E was tested. Which “effect of a mutation on the interaction” value did it give?
Answer: decreasing interaction
